Patent US20190330320A1 (H LUNDBECK A S, published 2019)
Where a chain is given by its changes, count along the chain named. In names and notes the source's numbering stands. Values belong to the binder of their own block, whether it stands above or below them.

What was measured:
[1] = molecular target: T1, pathological hyperphosphorylated tau from human Alzheimer's disease brain (AD-P3 antigens) (human, UniProt P10636 2-758, hyperphosphorylated; phosphoserine at 396); experiment: binding to tau isolated from diseased and healthy brains
T1 construct: Brain-derived material with a mixture of tau isoforms and aggregates; Also used for tangles stained in AD brain sections and for the S1, S1p and P3 fractions and lysates of AD brain; also called P3 tau isolated from human AD brains

[2] = molecular target: T2, Antibody C10-2 (humanized C10-2); experiment: fluid phase peptide inhibition of antibody binding to peptide-coated MSD wells
T2 construct: also called human C10-2; hC10-2
Procedure: (§1) FIG. 2. Peptide inhibition assay illustrating apparent affinity hC10-2 and related C10-2 variants.
(§2) Plates were washed 5 times in (PBS, 0.1% BSA, 0.1% NP40) and anti-human total Tau (MSD sulfo tagged 1:50) was added to detect bound antibody which reflect non-inhibited free antibody.

[3] = molecular target: Antibody N32S, A101T (hC10-2_N32S_A101T); experiment: as above
Procedure: as §1, §2

[4] = molecular target: T3, Antibody N32S (hC10-2_N32S); experiment: as above
T3 construct: Variant of humanized C10-2 with light chain N32S; also called hC10-2_N325; C10-2_N325
Procedure: as §1, §2

[5] = molecular target: T4, P-S396 Tau in Alzheimer brain extracts (human, UniProt P10636 2-758, phosphoserine at 396); experiment: immunodepletion of AD brain extract, P-S396 western blot
T4 construct: Brain-derived; Defined by the western blot signal for P-S396; also called S-P396
Procedure: FIG. 16. Quantification of P-S396 Tau western blot signal after immunodepleting Alzheimers diseased brain extracts using different amounts of hC10-2 variants N32S, N32Q, N32S_A101T, N32Q_ A101T, N32Q_D55E and N32S_ D55E.
Samples were boiled in 1×LDS loading buffer and 100 mM DTT. A volume corresponding to 3 μl of extracts were loaded on a 4-12% Bis-Tris NuPAGE Gel (LifeTech Novex). After electrophoresis, the proteins were blotted over to a ImmobilonFL PVDF membrane ([…], IPFL10100, Millipore). The membrane was blocked with SEA blocking buffer (Prod#37527, Thermo). Tau and P-tau levels were assessed in the samples using Tau5 (Abcam ab80579, 1:2000) mouse C10-2 (1 μg/ml), P-5199/202 (Invitrogen 44768 G, 1:1000), P-5422 (Abcam ab79415, 1:750), human IPN (1 μg/ml). Gapdh and actin were used as loading controls (Abcam ab9484, 1:2000, Sigma A5441, 1:20000). Secondary fluorophore conjugated IgG antibodies was used (IRDye 800CW Goat anti-Human, IRDye 800CW, Goat anti-rabbit, IRDye 680 Goat anti-mouse, LI-COR biosciences) and the signal was quantified using Odyssey CLx and Image studio software (LI-COR biosciences). Quantification of individual bands as well as signal in whole lanes was done and from this sigmoidal dose-response curves were plotted and when possible max effect and EC50 values were estimated.

T4 sequence (P10636 other isoform, or with tags, fused parts or gaps limits assumed): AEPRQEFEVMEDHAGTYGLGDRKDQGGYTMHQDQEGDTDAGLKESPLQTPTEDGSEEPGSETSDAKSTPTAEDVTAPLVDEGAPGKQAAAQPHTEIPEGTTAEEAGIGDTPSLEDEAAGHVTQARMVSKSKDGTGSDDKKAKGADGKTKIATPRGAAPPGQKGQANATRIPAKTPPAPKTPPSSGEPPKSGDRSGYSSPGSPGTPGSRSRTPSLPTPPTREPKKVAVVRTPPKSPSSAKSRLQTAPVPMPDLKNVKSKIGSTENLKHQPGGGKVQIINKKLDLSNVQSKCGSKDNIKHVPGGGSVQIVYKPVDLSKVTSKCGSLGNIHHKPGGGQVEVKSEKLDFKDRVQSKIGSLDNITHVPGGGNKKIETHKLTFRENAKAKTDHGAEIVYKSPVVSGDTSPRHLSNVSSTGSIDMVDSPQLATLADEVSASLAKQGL
T1 sequence (P10636 other isoform, or with tags, fused parts or gaps limits assumed): as above

AD/ctrl (binding to tau from AD brain over tau from healthy control brain) [1]: 3 ratio
B1: HJ8.5 (antibody, V domains shown)
VH: EVKVEESGGGLVQPGGSMKLSCVVSGFTFSNYWVNWVRQSPEKGLEWVAQIRLKSDNYATHYEESVKGRFTISRDDSKSSVYLQMNNLRAEDSGIYYCTNWEDYWGQGTTLTVSS
VL: DIVLTQSPASLAVSLGQRATISCRASQSVSTSRYSYIHWYQQKPGQPPKLLIKYASNLESGVPARFSGSGSGTDFTLNIHPLEEEDAATYYCHHSWEIPLTFGAGTKLELK

IC50 [2]: 24 nM
IC50 [3]: 34 nM
IC50 [4]: 50 nM
B2: Ptau (P396) 386-408 peptide (peptide)
peptide: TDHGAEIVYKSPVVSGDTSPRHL
modifications: phosphoserine at 396 (tau numbering)

AD/ctrl (binding to tau from AD brain over tau from healthy control brain) [1]: 3 ratio
B3: IPN002 (antibody, V domains shown)
VH: EVHLVESGGALVKPGGSLKLSCAASGFSFSKYGMSWVRQTPDKRLEWVATISSSGSRTYYPDSVKGQFTISRDNAKNTLYLQMSSLKSEDTAMYYCSISWDGAMDYWGQGTSVTVSS
VL: DVLMTQTPLSLPVSLGDQASISCKSSQSIVHSNGNTYLEWYLQKPGQSPKLLVYKVSNRFSGVPDRFSGSGSGTDFTLKISRVEAEDLGTYYCFQGSLVPWAFGGGTKLEIK

percent decrease in the S-P396 signal at 75 ng antibody [5]: ≥ 28%
B4: Antibody N32Q (hC10-2_N32Q) (antibody, human IgG1, kappa, V domains shown)
VH: QVQLVQSGAEVVKPGASVKISCKASGYTFTDRTIHWVRQAPGQGLEWIGYIYPGDGSTKYSQKFQGRATLTADTSASTAYMELSSLRSEDTAVYYCARRGAMDYWGQGTSVTVSS
VL: DVQMTQSPSSLSASVGDRVTMTCQASQDTSIQLNWFQQKPGKAPKLLIYGASNLETGVPSRFSGSRSGTDFTLTISSLQPEDMATYYCLQHTYLPFTFGSGTKLEIKR

percent decrease in the S-P396 signal at 75 ng antibody [5]: ≥ 28%
B5: Antibody N32Q, A101T (hC10-2_N32Q_A101T) (antibody, human IgG1, kappa, V domains shown)
VH: B4 VH with A101T
VL: B4 VL

percent decrease in the S-P396 signal at 75 ng antibody [5]: ≥ 28%
B6: hC10-2 variant N32S_D55E (antibody, human IgG1, kappa, V domains shown)
VH: B4 VH with D55E
VL: B4 VL with Q32S
notes: Chains are put together from the variant names: light chain N32S and heavy chain D55E; also called C10-2_N32S D55E

percent decrease in the S-P396 signal at 75 ng antibody [5]: 16%
B7: hC10-2 variant N32Q_D55E (antibody, human IgG1, kappa, V domains shown)
VH: B4 VH with D55E
VL: B4 VL
notes: Chains are put together from the variant names: light chain N32Q and heavy chain D55E
